This note sets out measurements from PMC9860126, “Mechanistic insights into the nickel-dependent allosteric response of the Helicobacter pylori NikR transcription factor”.

Common to all, as to assay: fluorescence anisotropy; Ni(II)-bound; FA: 5 nM DNA, 20 mM Tris pH 7.6, 100 mM NaCl, 3 mM MgSO4, temperature not stated (Ni loading 1.2 eq NiSO4 per monomer at RT). EMSA: 20 mM Tris pH 7.5, 100 mM KCl, 3 mM MgCl2, 0.1% IGEPAL, 5% glycerol, 0.1 mg/ml herring sperm DNA, RT; gel with 800 uM NiSO4 at 4 C
Common to all, as to conditions: protein: recombinant; tags: none stated; chain copies: 4; label: fluorescein on internal thymine (T14 of strand 1); blunt
(In general: In fluorescence polarisation assays a small probe gives low polarisation when free and higher when bound to something large.)

Data set [1] deals with HpNikR I127A (Helicobacter pylori G27, UniProt A1YSQ9 1-148, I127A).
Data set [2] has as its target HpNikR GGS (Helicobacter pylori G27, UniProt A1YSQ9 1-148, P59G;N60G;D61S).
Data set [3] has as its target HpNikR K140A (Helicobacter pylori G27, UniProt A1YSQ9 1-148, K140A).

B1: ureA promoter 32 bp (FA) (dsDNA)
DNA 1: ATATAACACTAATTCATTTTAAATAATAATTA
DNA 2: TAATTATTATTTAAAATGAATTAGTGTTATAT
As usually defined, the Kd is the concentration at which binding is half-saturated. With B1, the equilibrium dissociation constant (Kd) came to 8.7 ± 1.3 nM in data set [1], 4.6 ± 1.2 nM in data set [2] and 63 ± 5.6 nM in data set [3].
